Target: the molecule itself
Assay: two-step photobleaching of single molecules

B1: GFP-tagged MCAK containing aa 187-730 (GMΔNT) (domain or fragment, UniProt Q91636 187-730, looked up)
chain: GRNNQGRRKSNIVKEMEKMKNKREEQRAQNYERRMKRAQDYDTSVPNWEFGKMIKEFRATMDCHRISMADPAEEHRICVCVRKRPLNKQELSKKEIDIISVPSKNIVLVHEPKLKVDLTKYLENQAFRFDFSFDETATNEVVYRFTARPLVQSIFEGGKATCFAYGQTGSGKTHTMGGDFSGKSQNVSKGVYAFASRDVFLLLDQPRYKHLDLDVFVTFFEIYNGKVFDLLNKKTKLRVLEDAKQEVQVVGLLEKQVISADDVFKMIEIGSACRTSGQTFANTSSSRSHACLQIILRRGSKLHGKFSLVDLAGNERGVDTASADRITRMEGAEINRSLLALKECIRALGQNKSHTPFRESKLTQILRDSFIGENSRTCMIAMLSPGFNSCEYTLNTLRYADRVKELSPQNAETNDDNLQMEDSGGSHASIEGLQLQDDFLLKDEELSTHNSFQDALNRVGELEDKAVDELRELVQKEPEWTNLLQMTEQPDYDLENFVMQAEYLIQERSKVLIALGDSINSLRLALQVEEQASKQISKKKRSNK
For B1, the “stoichiometry N” value was 2.

— PMC3897551 (Current biology : CB, 2013)
